Measurements taken from paper PMC8552302 (Journal of medicinal chemistry, 2021).

How the values were obtained:
[1] = rhesus monkey, in vivo; cited from earlier work
mMC3R = mMC3R (Mus musculus, UniProt P33033); assay: β-galactosidase cAMP reporter agonist assay, mMC3R; conditions: read-out: efficacy at the mMC3R compared to the maximal response of α-MSH
Chain of mMC3R (P33033 whole entry): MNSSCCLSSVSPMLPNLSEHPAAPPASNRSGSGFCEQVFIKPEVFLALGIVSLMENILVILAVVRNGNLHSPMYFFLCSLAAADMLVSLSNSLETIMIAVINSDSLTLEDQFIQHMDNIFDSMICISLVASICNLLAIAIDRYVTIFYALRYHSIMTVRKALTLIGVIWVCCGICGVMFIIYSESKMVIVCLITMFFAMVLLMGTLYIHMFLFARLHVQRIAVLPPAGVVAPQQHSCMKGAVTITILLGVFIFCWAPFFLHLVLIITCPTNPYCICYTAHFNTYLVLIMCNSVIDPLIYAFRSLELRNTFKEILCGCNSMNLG

Emax (mMC3R) | Compound | effect on heart rate and blood pressure [1]
 | Ac-DArg-c[Cys-Glu-His-DPhe-Arg-Trp-Cys-NH2 [LY2112688] | significantly increased heart rate and blood pressure
90 to 95% | O=C(NC(Cc1ccc(Cl)cc1)C(=O)N1CCC(Cn2cncn2)(C2CCCCC2)CC1)[C@H]1Cc2ccccc2CN1 (stereo in doubt) [THIQ, N-[(3R)-1,2,3,4-tetrahydroisoquinolinium-3-ylcarbonyl]-(1R)-1-(4-chlorobenzyl)2-[4-cyclohexyl-4-(1H-1,2,4-triazol-1-ylmethyl)piperidin-1-yl]-2-oxoethylamine] | 
